The supplement of paper PMC5998384

Key:
HeLa Kyoto [1] = experiment: melting temperature (median over replicates), in situ; higher = more thermally stable
HeLa Kyoto [2] = experiment: solubility in G1/S (NP-40 vs SDS abundance) (log2 ratio); higher = more soluble; conditions: cell cycle stage: G1/S
HeLa Kyoto [3] = experiment: solubility change mitosis vs G1/S (difference of NP-40 vs SDS log2 ratios) (log2 ratio difference); higher = more soluble in mitosis
HeLa Kyoto [4] = experiment: thermal stability score vs G1/S (z-score of summed log2 fold changes over temperatures); higher = more thermally stable than in G1/S
[5] = cell cycle stage: early G1 (4.5 h after nocodazole release)
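For melting temperature (median over replicates), in situ in this document: HeLa Kyoto cells synchronized by double thymidine or nocodazole block, proteins quantified by TMT10plex mass spectrometry, three independent biological replicates.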
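For solubility change mitosis vs G1/S (difference of NP-40 vs SDS log2 ratios) in this document: synchronized HeLa Kyoto cells (double thymidine block for G1/S, nocodazole release for mitosis), protein amounts in NP-40 versus SDS lysates quantified by mass spectrometry, three biological replicates.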
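For solubility in G1/S (NP-40 vs SDS abundance) in this document: HeLa Kyoto cells arrested at G1/S by double thymidine block, proteins quantified by TMT10plex mass spectrometry in mild NP-40 versus SDS extracts, three biological replicates.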
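For thermal stability score vs G1/S (z-score of summed log2 fold changes over temperatures) in this document: synchronized HeLa Kyoto cells, proteins quantified by TMT10plex mass spectrometry, three biological replicates, mitosis taken 0.5 h after nocodazole release, G1/S directly after double thymidine block.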

| Sequence | melting temperature (HeLa Kyoto [1]; cell cycle stage: G1/S) [°C] | melting temperature (HeLa Kyoto [1]; cell cycle stage: mitosis) [°C] | solubility in G1/S (log2) (HeLa Kyoto [2]) | solubility change mitosis (log2) (HeLa Kyoto [3]) | thermal stability score (HeLa Kyoto [4]; [5]) | thermal stability score (HeLa Kyoto [4]; cell cycle stage: mitosis) |
| --- | --- | --- | --- | --- | --- | --- |
| MPAERPAGSGGSEAPAMVEQLDTAVITPAMLEEEEQLEAAGLERERKMLEKARMSWDRESTEIRYRRLQHLLEKSNIYSKFLLTKMEQQQLEEQKKKEKLERKKESLKVKKGKNSIDASEEKPVMRKKRGREDESYNISEVMSKEEILSVAKKNKKENEDENSSSTNLCVEDLQKNKDSNSIIKDRLSETVRQNTKFFFDPVRKCNGQPVPFQQPKHFTGGVMRWYQVEGMEWLRMLWENGINGILADEMGLGKTVQCIATIALMIQRGVPGPFLVCGPLSTLPNWMAEFKRFTPDIPTMLYHGTQEERQKLVRNIYKRKGTLQIHPVVITSFEIAMRDRNALQHCYWKYLIVDEGHRIKNMKCRLIRELKRFNADNKLLLTGTPLQNNLSELWSLLNFLLPDVFDDLKSFESWFDITSLSETAEDIIAKEREQNVLHMLHQILTPFLLRRLKSDVALEVPPKREVVVYAPLSKKQEIFYTAIVNRTIANMFGSSEKETIELSPTGRPKRRTRKSINYSKIDDFPNELEKLISQIQPEVDRERAVVEVNIPVESEVNLKLQNIMMLLRKCCNHPYLIEYPIDPVTQEFKIDEELVTNSGKFLILDRMLPELKKRGHKVLLFSQMTSMLDILMDYCHLRDFNFSRLDGSMSYSEREKNMHSFNTDPEVFIFLVSTRAGGLGINLTAADTVIIYDSDWNPQSDLQAQDRCHRIGQTKPVVVYRLVTANTIDQKIVERAAAKRKLEKLIIHKNHFKGGQSGLNLSKNFLDPKELMELLKSRDYEREIKGSREKVISDKDLELLLDRSDLIDQMNASGPIKEKMGIFKILENSEDSSPECLF [HELLS] | 46.2 | 48.2 | -0.204 | 0.252 | 1.77 | 3.02 |
| MPAHLLQDDISSSYTTTTTITAPPSRVLQNGGDKLETMPLYLEDDIRPDIKDDIYDPTYKDKEGPSPKVEYVWRNIILMSLLHLGALYGITLIPTCKFYTWLWGVFYYFVSALGITAGAHRLWSHRSYKARLPLRLFLIIANTMAFQNDVYEWARDHRAHHKFSETHADPHNSRRGFFFSHVGWLLVRKHPAVKEKGSTLDLSDLEAEKLVMFQRRYYKPGLLMMCFILPTLVPWYFWGETFQNSVFVATFLRYAVVLNATWLVNSAAHLFGYRPYDKNISPRENILVSLGAVGEGFHNYHHSFPYDYSASEYRWHINFTTFFIDCMAALGLAYDRKKVSKAAILARIKRTGDGNYKSG [SCD] | 50.5 | 51.2 | -0.126 | -0.151 | 1.76 | -0.899 |
| MPAPEQASLVEEGQPQTRQEAASTGPGMEPETTATTILASVKEQELQFQRLTRELEVERQIVASQLERCRLGAESPSIASTSSTEKSFPWRSTDVPNTGVSKPRVSDAVQPNNYLIRTEPEQGTLYSPEQTSLHESEGSLGNSRSSTQMNSYSDSGYQEAGSFHNSQNVSKADNRQQHSFIGSTNNHVVRNSRAEGQTLVQPSVANRAMRRVSSVPSRAQSPSYVISTGVSPSRGSLRTSLGSGFGSPSVTDPRPLNPSAYSSTTLPAARAASPYSQRPASPTAIRRIGSVTSRQTSNPNGPTPQYQTTARVGSPLTLTDAQTRVASPSQGQVGSSSPKRSGMTAVPQHLGPSLQRTVHDMEQFGQQQYDIYERMVPPRPDSLTGLRSSYASQHSQLGQDLRSAVSPDLHITPIYEGRTYYSPVYRSPNHGTVELQGSQTALYRTGSVGIGNLQRTSSQRSTLTYQRNNYALNTTATYAEPYRPIQYRVQECNYNRLQHAVPADDGTTRSPSIDSIQKDPREFAWRDPELPEVIHMLQHQFPSVQANAAAYLQHLCFGDNKVKMEVCRLGGIKHLVDLLDHRVLEVQKNACGALRNLVFGKSTDENKIAMKNVGGIPALLRLLRKSIDAEVRELVTGVLWNLSSCDAVKMTIIRDALSTLTNTVIVPHSGWNNSSFDDDHKIKFQTSLVLRNTTGCLRNLSSAGEEARKQMRSCEGLVDSLLYVIHTCVNTSDYDSKTVENCVCTLRNLSYRLELEVPQARLLGLNELDDLLGKESPSKDSEPSCWGKKKKKKKRTPQEDQWDGVGPIPGLSKSPKGVEMLWHPSVVKPYLTLLAESSNPATLEGSAGSLQNLSAGNWKFAAYIRAAVRKEKGLPILVELLRMDNDRVVSSVATALRNMALDVRNKELIGKYAMRDLVNRLPGGNGPSVLSDETMAAICCALHEVTSKNMENAKALADSGGIEKLVNITKGRGDRSSLKVVKAAAQVLNTLWQYRDLRSIYKKDGWNQNHFITPVSTLERDRFKSHPSLSTTNQQMSPIIQSVGSTSSSPALLGIRDPRSEYDRTQPPMQYYNSQGDATHKGLYPGSSKPSPIYISSYSSPAREQNRRLQHQQLYYSQDDSNRKNFDAYRLYLQSPHSYEDPYFDDRVHFPASTDYSTQYGLKSTTNYVDFYSTKRPSYRAEQYPGSPDSWV [PKP4] | 50.6 | – | -0.319 | 0.0763 | -0.193 | -0.925 |
| MPATRKPMRYGHTEGHTEVCFDDSGSFIVTCGSDGDVRIWEDLDDDDPKFINVGEKAYSCALKSGKLVTAVSNNTIQVHTFPEGVPDGILTRFTTNANHVVFNGDGTKIAAGSSDFLVKIVDVMDSSQQKTFRGHDAPVLSLSFDPKDIFLASASCDGSVRVWQISDQTCAISWPLLQKCNDVINAKSICRLAWQPKSGKLLAIPVEKSVKLYRRESWSHQFDLSDNFISQTLNIVTWSPCGQYLAAGSINGLIIVWNVETKDCMERVKHEKGYAICGLAWHPTCGRISYTDAEGNLGLLENVCDPSGKTSSSKVSSRVEKDYNDLFDGDDMSNAGDFLNDNAVEIPSFSKGIINDDEDDEDLMMASGRPRQRSHILEDDENSVDISMLKTGSSLLKEEEEDGQEGSIHNLPLVTSQRPFYDGPMPTPRQKPFQSGSTPLHLTHRFMVWNSIGIIRCYNDEQDNAIDVEFHDTSIHHATHLSNTLNYTIADLSHEAILLACESTDELASKLHCLHFSSWDSSKEWIIDLPQNEDIEAICLGQGWAAAATSALLLRLFTIGGVQKEVFSLAGPVVSMAGHGEQLFIVYHRGTGFDGDQCLGVQLLELGKKKKQILHGDPLPLTRKSYLAWIGFSAEGTPCYVDSEGIVRMLNRGLGNTWTPICNTREHCKGKSDHYWVVGIHENPQQLRCIPCKGSRFPPTLPRPAVAILSFKLPYCQIATEKGQMEEQFWRSVIFHNHLDYLAKNGYEYEESTKNQATKEQQELLMKMLALSCKLEREFRCVELADLMTQNAVNLAIKYASRSRKLILAQKLSELAVEKAAELTATQVEEEEEEEDFRKKLNAGYSNTATEWSQPRFRNQVEEDAEDSGEADDEEKPEIHKPGQNSFSKSTNSSDVSAKSGAVTFSSQGRVNPFKVSASSKEPAMSMNSARSTNILDNMGKSSKKSTALSRTTNNEKSPIIKPLIPKPKPKQASAASYFQKRNSQTNKTEEVKEENLKNVLSETPAICPPQNTENQRPKTGFQMWLEENRSNILSDNPDFSDEADIIKEGMIRFRVLSTEERKVWANKAKGETASEGTEAKKRKRVVDESDETENQEEKAKENLNLSKKQKPLDFSTNQKLSAFAFKQE [WDHD1] | 47.9 | 49.6 | -0.1 | -0.0991 | 2.58 | 6.16 |
| MPAVDKLLLEEALQDSPQTRSLLSVFEEDAGTLTDYTNQLLQAMQRVYGAQNEMCLATQQLSKQLLAYEKQNFALGKGDEEVISTLHYFSKVVDELNLLHTELAKQLADTMVLPIIQFREKDLTEVSTLKDLFGLASNEHDLSMAKYSRLPKKKENEKVKTEVGKEVAAARRKQHLSSLQYYCALNALQYRKQMAMMEPMIGFAHGQINFFKKGAEMFSKRMDSFLSSVADMVQSIQVELEAEAEKMRVSQQELLSVDESVYTPDSDVAAPQINRNLIQKAGYLNLRNKTGLVTTTWERLYFFTQGGNLMCQPRGAVAGGLIQDLDNCSVMAVDCEDRRYCFQITTPNGKSGIILQAESRKENEEWICAINNISRQIYLTDNPEAVAIKLNQTALQAVTPITSFGKKQESSCPSQNLKNSEMENENDKIVPKATASLPEAEELIAPGTPIQFDIVLPATEFLDQNRGSRRTNPFGETEDESFPEAEDSLLQQMFIVRFLGSMAVKTDSTTEVIYEAMRQVLAARAIHNIFRMTESHLMVTSQSLRLIDPQTQVSRANFELTSVTQFAAHQENKRLVGFVIRVPESTGEESLSTYIFESNSEGEKICYAINLGKEIIEVQKDPEALAQLMLSIPLTNDGKYVLLNDQPDDDDGNPNEHRGAESEA [APPL2] | 49.1 | 49.5 | 0.193 | -0.0416 | -0.102 | 0.993 |
| MPAVSKGDGMRGLAVFISDIRNCKSKEAEIKRINKELANIRSKFKGDKALDGYSKKKYVCKLLFIFLLGHDIDFGHMEAVNLLSSNKYTEKQIGYLFISVLVNSNSELIRLINNAIKNDLASRNPTFMCLALHCIANVGSREMGEAFAADIPRILVAGDSMDSVKQSAALCLLRLYKASPDLVPMGEWTARVVHLLNDQHMGVVTAAVSLITCLCKKNPDDFKTCVSLAVSRLSRIVSSASTDLQDYTYYFVPAPWLSVKLLRLLQCYPPPEDAAVKGRLVECLETVLNKAQEPPKSKKVQHSNAKNAILFETISLIIHYDSEPNLLVRACNQLGQFLQHRETNLRYLALESMCTLASSEFSHEAVKTHIDTVINALKTERDVSVRQRAADLLYAMCDRSNAKQIVSEMLRYLETADYAIREEIVLKVAILAEKYAVDYSWYVDTILNLIRIAGDYVSEEVWYRVLQIVTNRDDVQGYAAKTVFEALQAPACHENMVKVGGYILGEFGNLIAGDPRSSPPVQFSLLHSKFHLCSVATRALLLSTYIKFINLFPETKATIQGVLRAGSQLRNADVELQQRAVEYLTLSSVASTDVLATVLEEMPPFPERESSILAKLKRKKGPGAGSALDDGRRDPSSNDINGGMEPTPSTVSTPSPSADLLGLRAAPPPAAPPASAGAGNLLVDVFDGPAAQPSLGPTPEEAFLSELEPPAPESPMALLADPAPAADPGPEDIGPPIPEADELLNKFVCKNNGVLFENQLLQIGVKSEFRQNLGRMYLFYGNKTSVQFQNFSPTVVHPGDLQTQLAVQTKRVAAQVDGGAQVQQVLNIECLRDFLTPPLLSVRFRYGGAPQALTLKLPVTINKFFQPTEMAAQDFFQRWKQLSLPQQEAQKIFKANHPMDAEVTKAKLLGFGSALLDNVDPNPENFVGAGIIQTKALQVGCLLRLEPNAQAQMYRLTLRTSKEPVSRHLCELLAQQF [AP2A1] | 52 | 51.9 | -0.0177 | -0.103 | 0.878 | 2.23 |
| MPEAPPLLLAAVLLGLVLLVVLLLLLRHWGWGLCLIGWNEFILQPIHNLLMGDTKEQRILNHVLQHAEPGNAQSVLEAIDTYCEQKEWAMNVGDKKGKIVDAVIQEHQPSVLLELGAYCGYSAVRMARLLSPGARLITIEINPDCAAITQRMVDFAGVKDKVTLVVGASQDIIPQLKKKYDVDTLDMVFLDHWKDRYLPDTLLLEECGLLRKGTVLLADNVICPGAPDFLAHVRGSSCFECTHYQSFLEYREVVDGLEKAIYKGPGSEAGP [COMT] | 52.9 | 54.2 | -0.0917 | -0.128 | 3.01 | 5.26 |
